This passage reports protein stability index results from the supplement of paper PMC10567573.

B1: ZNF207 (parent)
chain: CHICHKKLYTGPGLAIHCMQVHKE
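Also: lentivirally expressed fusions sorted by FACS into six bins by GFP to DsRed ratio, PSI derived from sequencing read proportions per bin multiplied by bin number.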

This data set covers variants of B1. As to the kind of experiment: protein stability index of a GFP-peptide fusion (GPS, HEK-293T) (PSI 1-6); higher = more stable. The settings on record: c terminus: a fixed tail appended.
On to CHICHKKLYTGPGAAIHCMQVHKE [L14A], for which the protein stability index came out at 3.96.

Regarding CHICHKKLYTGPGGAIHCMQVHKE [L14G], the protein stability index came out at 3.85.

With CHICHKKLYTGPGHAIHCMQVHKE [L14H], the protein stability index is 3.69.

As for CHICHKKLYTGPGRAIHCMQVHKE [L14R], the protein stability index is 2.79.

CHICHKKLYTGPGKAIHCMQVHKE [L14K]: the protein stability index amounted to 3.1.

CHICHKKLYTGPGVAIHCMQVHKE [L14V]: the protein stability index was found to be 3.

As to CHICHKKLYTGPGNAIHCMQVHKE [L14N], the protein stability index was found to be 4.65.

For the variant CHICHKKLYTGPGWAIHCMQVHKE [L14W], the protein stability index amounted to 2.85.

Turning to CHICHKKLYTGPGEAIHCMQVHKE [L14E], the protein stability index worked out at 4.44.

As for CHICHKKLYTGPGYAIHCMQVHKE [L14Y], the protein stability index came out at 2.94.

Consider CHICHKKLYTGPGTAIHCMQVHKE [L14T], for which the protein stability index was determined as 3.6.

CHICHKKLYTGPGIAIHCMQVHKE [L14I]: the protein stability index was found to be 3.3.

Consider CHICHKKLYTGPGPAIHCMQVHKE [L14P], for which the protein stability index came out at 3.9.

With CHICHKKLYTGPGFAIHCMQVHKE [L14F], the protein stability index worked out at 2.9.

With CHICHKKLYTGPGCAIHCMQVHKE [L14C], the protein stability index is 3.34.

With CHICHKKLYTGPGSAIHCMQVHKE [L14S], the protein stability index came to 3.22.

As to CHICHKKLYTGPGDAIHCMQVHKE [L14D], the protein stability index amounted to 4.56.

Regarding CHICHKKLYTGPGQAIHCMQVHKE [L14Q], the protein stability index was 3.78.

For the variant CHICHKKLYTGPGMAIHCMQVHKE [L14M], the protein stability index worked out at 3.45.

In the case of CHICHKKLYTGPGLAIHEMQVHKE [C18E], the protein stability index came to 3.57.

Consider CHICHKKLYTGPGLAIHFMQVHKE [C18F], for which the protein stability index came out at 2.21.

Turning to CHICHKKLYTGPGLAIHGMQVHKE [C18G], the protein stability index is 2.18.

In the case of CHICHKKLYTGPGLAIHDMQVHKE [C18D], the protein stability index is 2.75.

Take CHICHKKLYTGPGLAIHAMQVHKE [C18A]: the protein stability index amounted to 2.62.

In the case of CHICHKKLYTGDGLAIHCMQVHKE [P12D], the protein stability index was 4.51.

Turning to CHICHKKLYTGFGLAIHCMQVHKE [P12F], the protein stability index was found to be 2.41.

As to CHICHKKLYTGLGLAIHCMQVHKE [P12L], the protein stability index was determined as 3.46.

CHICHKKLYTGYGLAIHCMQVHKE [P12Y]: the protein stability index was determined as 3.73.

Take CHICHKKLYTGNGLAIHCMQVHKE [P12N]: the protein stability index stood at 4.09.

For CHICHKKLYTGAGLAIHCMQVHKE [P12A], the protein stability index stood at 3.84.

For CHICHKKLYTGEGLAIHCMQVHKE [P12E], the protein stability index stood at 4.48.

For CHICHKKLYTGQGLAIHCMQVHKE [P12Q], the protein stability index is 4.11.

Consider CHICHKKLYTGCGLAIHCMQVHKE [P12C], for which the protein stability index came out at 3.09.

CHICHKKLYTGWGLAIHCMQVHKE [P12W]: the protein stability index stood at 3.49.

As for CHICHKKLYTGIGLAIHCMQVHKE [P12I], the protein stability index is 3.03.

For CHICHKKLYTGVGLAIHCMQVHKE [P12V], the protein stability index stood at 2.05.

In the case of CHICHKKLYTGSGLAIHCMQVHKE [P12S], the protein stability index is 3.86.

As for CHICHKKLYTGTGLAIHCMQVHKE [P12T], the protein stability index came out at 3.18.

For CHICHKKLYTGKGLAIHCMQVHKE [P12K], the protein stability index is 3.5.

On to CHICHKKLYTGRGLAIHCMQVHKE [P12R], for which the protein stability index amounted to 3.88.

With CHICHKKLYTGGGLAIHCMQVHKE [P12G], the protein stability index came out at 3.09.

As to CHICHKKLYTGHGLAIHCMQVHKE [P12H], the protein stability index is 5.06.

As to CHICHKKLYTGMGLAIHCMQVHKE [P12M], the protein stability index was 3.24.

In the case of CHICHKKLYTFPGLAIHCMQVHKE [G11F], the protein stability index turned out to be 2.63.

Regarding CHICHKKLYTYPGLAIHCMQVHKE [G11Y], the protein stability index was determined as 1.56.

As for CHICHKKLYTNPGLAIHCMQVHKE [G11N], the protein stability index was found to be 3.59.

As for CHICHKKLYTDPGLAIHCMQVHKE [G11D], the protein stability index is 3.98.

For the variant CHICHKKLYTHPGLAIHCMQVHKE [G11H], the protein stability index came out at 2.68.

Regarding CHICHKKLYTPPGLAIHCMQVHKE [G11P], the protein stability index is 3.94.

In the case of CHICHKKLYTVPGLAIHCMQVHKE [G11V], the protein stability index worked out at 2.32.

On to CHICHKKLYTMPGLAIHCMQVHKE [G11M], for which the protein stability index worked out at 2.05.

As for CHICHKKLYTKPGLAIHCMQVHKE [G11K], the protein stability index turned out to be 3.34.

Consider CHICHKKLYTLPGLAIHCMQVHKE [G11L], for which the protein stability index is 2.63.

CHICHKKLYTTPGLAIHCMQVHKE [G11T]: the protein stability index came out at 2.48.

As for CHICHKKLYTEPGLAIHCMQVHKE [G11E], the protein stability index is 4.53.

As to CHICHKKLYTWPGLAIHCMQVHKE [G11W], the protein stability index worked out at 1.36.

Turning to CHICHKKLYTAPGLAIHCMQVHKE [G11A], the protein stability index turned out to be 2.67.

In the case of CHICHKKLYTSPGLAIHCMQVHKE [G11S], the protein stability index amounted to 3.48.

With CHICHKKLYTRPGLAIHCMQVHKE [G11R], the protein stability index was 3.53.

As for CHICHKKLYTCPGLAIHCMQVHKE [G11C], the protein stability index stood at 2.31.

Take CHICHKKLYTQPGLAIHCMQVHKE [G11Q]: the protein stability index is 3.37.

As to CHICHKKLYTIPGLAIHCMQVHKE [G11I], the protein stability index stood at 1.58.

CHICHKKLYTGPGLAIPCMQVHKE [H17P]: the protein stability index came out at 2.78.

CHICHKKLYTGPGLAIDCMQVHKE [H17D]: the protein stability index turned out to be 2.47.

CHICHKKLYTGPGLAIQCMQVHKE [H17Q]: the protein stability index is 2.97.

In the case of CHICHKKLYTGPGLAIRCMQVHKE [H17R], the protein stability index stood at 2.22.

Regarding CHICHKKLYTGPGLAIICMQVHKE [H17I], the protein stability index came out at 2.08.

CHICHKKLYTGPGLAICCMQVHKE [H17C]: the protein stability index stood at 3.87.

For the variant CHICHKKLYTGPGLAIECMQVHKE [H17E], the protein stability index is 3.36.

On to CHICHKKLYTGPGLAIKCMQVHKE [H17K], for which the protein stability index was determined as 2.19.

As to CHICHKKLYTGPGLAIFCMQVHKE [H17F], the protein stability index is 3.52.

For CHICHKKLYTGPGLAISCMQVHKE [H17S], the protein stability index stood at 3.15.

Regarding CHICHKKLYTGPGLAIWCMQVHKE [H17W], the protein stability index worked out at 3.87.

For the variant CHICHKKLYTGPGLAIVCMQVHKE [H17V], the protein stability index was 3.01.

In the case of CHICHKKLYTGPGLAINCMQVHKE [H17N], the protein stability index is 2.25.

With CHICHKKLYTGPGLAIGCMQVHKE [H17G], the protein stability index was determined as 2.82.

Consider CHICHKKLYTGPGLAIYCMQVHKE [H17Y], for which the protein stability index came to 2.67.

For CHICHKKLYTGPGLAIACMQVHKE [H17A], the protein stability index came out at 2.15.

CHICHKKLYTGPGLAIMCMQVHKE [H17M]: the protein stability index came out at 2.55.

Consider CHICHKKLYTGPGLAITCMQVHKE [H17T], for which the protein stability index worked out at 2.7.

For CHICHKKLYTGPGLAILCMQVHKE [H17L], the protein stability index came to 1.87.

For CHICHKKLNTGPGLAIHCMQVHKE [Y9N], the protein stability index came to 3.83.

In the case of CHICHKKLFTGPGLAIHCMQVHKE [Y9F], the protein stability index turned out to be 3.16.

Consider CHICHKKLGTGPGLAIHCMQVHKE [Y9G], for which the protein stability index was determined as 3.76.

Turning to CHICHKKLLTGPGLAIHCMQVHKE [Y9L], the protein stability index is 3.97.

With CHICHKKLPTGPGLAIHCMQVHKE [Y9P], the protein stability index amounted to 3.64.

For the variant CHICHKKLATGPGLAIHCMQVHKE [Y9A], the protein stability index was determined as 4.31.

Consider CHICHKKLQTGPGLAIHCMQVHKE [Y9Q], for which the protein stability index amounted to 3.93.

Consider CHICHKKLSTGPGLAIHCMQVHKE [Y9S], for which the protein stability index is 4.28.

CHICHKKLWTGPGLAIHCMQVHKE [Y9W]: the protein stability index came to 2.34.

Turning to CHICHKKLHTGPGLAIHCMQVHKE [Y9H], the protein stability index is 3.62.

For CHICHKKLCTGPGLAIHCMQVHKE [Y9C], the protein stability index worked out at 3.39.

As for CHICHKKLDTGPGLAIHCMQVHKE [Y9D], the protein stability index is 4.9.

As to CHICHKKLITGPGLAIHCMQVHKE [Y9I], the protein stability index came out at 2.72.
